According to publication PMC9098913, “In vitro reconstitution of Escherichia coli divisome activation” (Nature Communications, 2022):

Test: Diffusion coefficient (Dcoeff) of FtsA from FRAP
Conditions: for Diffusion Coefficient, mean: Fig. 3j; for Dcoeff: Fig. S3i/S3j, summary value
From the text: We could also use the data from these bleaching experiments to quantify the membrane-binding kinetics and diffusion of membrane-bound proteins by analysing the change of the fluorescence profile during recovery.
Equimolar concentrations of Cy3- and Cy5-labelled FtsA, supplemented with 20% unlabelled FtsA were used to study FRET and FRAP. Five pre-bleach frames were acquired, followed by acceptor photobleaching of a rectangular ROI with 40% 641 nm laser power and a dwell size of 1 µs/pixel, 75% overlapping lines. The recovery of the signal or the increase in donor intensity were measured with either two frames or one frame per second.
Bleaching the acceptor dye leads to an increase in the donor intensity, which can be used to quantify the Foerster Resonance energy transfer (FRET)[48]. FRET efficiency was quantified with E%=Ipost/Ipost+Ipre⋅100 , where Ipost is the intensity of the […] and Ipre is the […]. […] To extract the contribution of both processes, we adjusted a routine recently published by Gerganova et al.[33]. In short, the code provides the contribution of both modes of recovery by analysing the shape of the fluorescence recovery profile. […] Contribution of diffusion leads to a change of the slope of the outer borders of the bleached region (S4h right). Thus, by measuring the change of the slope of the border recovery, diffusion and simple on/off binding can be distinguished. We developed “FRAPdiff”, a graphical user interface, which uses the original fit routine by David Rutkowski. It can be used directly on.tiff movies with annotated bleach regions as ImageJ ROIs. In addition, we added optional bleach correction, user selectable projection axis (x or y), and optional mirroring of the recovery profiles, if bleaching was not symmetric. The original fit routine for estimating the recovery and diffusion dynamics can be found at https://github.com/davidmrutkowski/1DReflectingDiffusion. FRAPdiff is available at 10.5281/zenodo.6400639[49] under the GPLv3 open-source license.

B1: FtsA R286W (protein)
chain: MIKATDRKLVVGLEIGTAKVAALVGEVLPDGMVNIIGVGSCPSRGMDKGGVNDLESVVKCVQRAIDQAELMADCQISSVYLALSGKHISCQNEIGMVPISEEEVTQEDVENVVHTAKSVRVRDEHRVLHVIPQEYAIDYQEGIKNPVGLSGVRMQAKVHLITCHNDMAKNIVKAVERCGLKVDQLIFAGLASSYSVLTEDERELGVCVVDIGGGTMDIAVYTGGALRHTKVIPYAGNVVTSDIAYAFGTPPSDAEAIKVRHGCALGSIVGKDESVEVPSVGGRPPWSLQRQTLAEVIEPRYTELLNLVNEEILQLQEKLRQQGVKHHLAAGIVLTGGAAQIEGLAACAQRVFHTQVRIGAPLNITGLTDYAQEPYYSTAVGLLHYGKESHLNGEAEVEKRVTASVGSWIKRLNSWLRKEF
modifications: Cy3 or Cy5 at the N-terminus in the labelled form (labelled CLEPTGG peptide conjugated to the 5xGly tag by sortagging); unlabelled protein also used; left off: TwinStrep-SUMO, N-terminal, cleaved | 5x
0.4µM FtsA alone, replicate Exp.6
  Diffusion Coefficient: 1.63E-01
0.4µM FtsA alone, replicate Exp.7
  Diffusion Coefficient: 2.73E-01
0.4µM FtsA alone, replicate Exp.8
  Diffusion Coefficient: 2.14E-01
0.4µM FtsA alone, replicate Exp.9
  Diffusion Coefficient: 1.27E-01
0.4 µM FtsA, FRAP, p-value […] 10^−6
  Diffusion Coefficient: 0.14 ± 0.08 µm^2/s
0.4µM, + FtsN&Z, Mean, n=6 (WT), 9 (R286W)
  Diffusion Coefficient: 0.0079
0.4µM, + FtsN&Z, replicate Exp.1
  Diffusion Coefficient: 3.88E-02
0.4µM, + FtsN&Z, replicate Exp.2
  Diffusion Coefficient: 8.74E-03
0.4µM, + FtsN&Z, replicate Exp.3
  Diffusion Coefficient: 4.31E-03
0.4µM, + FtsN&Z, replicate Exp.4
  Diffusion Coefficient: 3.80E-04
0.4µM, + FtsN&Z, replicate Exp.5
  Diffusion Coefficient: 1.83E-02
0.4µM, + FtsN&Z, replicate Exp.6
  Diffusion Coefficient: 1.51E-04
0.4µM, + FtsN&Z, replicate Exp.7
  Diffusion Coefficient: 1.71E-04
0.4µM, + FtsN, Mean, n=5 (WT), 6 (R286W)
  Diffusion Coefficient: 0.0457
0.4µM, + FtsN, replicate Exp.1
  Diffusion Coefficient: 2.78E-02
0.4µM, + FtsN, replicate Exp.2
  Diffusion Coefficient: 2.32E-02
0.4µM, + FtsN, replicate Exp.3
  Diffusion Coefficient: 3.10E-02
0.4µM, + FtsN, replicate Exp.4
  Diffusion Coefficient: 1.25E-01
0.4µM, + FtsN, replicate Exp.5
  Diffusion Coefficient: 3.86E-02
0.4µM, + FtsN, replicate Exp.6
  Diffusion Coefficient: 2.82E-02
0.4µM, + FtsZ, Mean, n=5 (WT), 8 (R286W)
  Diffusion Coefficient: 0.0305
0.4µM, + FtsZ, replicate Exp.1
  Diffusion Coefficient: 9.70E-03
0.4µM, + FtsZ, replicate Exp.2
  Diffusion Coefficient: 1.10E-04
0.4µM, + FtsZ, replicate Exp.3
  Diffusion Coefficient: 2.57E-02
0.4µM, + FtsZ, replicate Exp.4
  Diffusion Coefficient: 8.47E-04
0.4µM, + FtsZ, replicate Exp.5
  Diffusion Coefficient: 3.19E-02
0.4µM, + FtsZ, replicate Exp.6
  Diffusion Coefficient: 1.28E-01
0.4µM, + FtsZ, replicate Exp.7
  Diffusion Coefficient: 3.30E-03
0.4µM, + FtsZ, replicate Exp.8
  Diffusion Coefficient: 4.40E-02
0.8 µM FtsA + N
  Diffusion Coefficient, mean: 4.39E-02 µm2/s
0.8 µM FtsA + Z&N
  Diffusion Coefficient, mean: 7.03E-03 µm2/s
0.8 µM FtsA + Z
  Diffusion Coefficient, mean: 1.59E-02 µm2/s
0.8µM FtsA alone, Mean, n=19 (WT), 8 (R286W)
  Diffusion Coefficient: 0.1136
0.8 µM FtsA alone
  Diffusion Coefficient, mean: 1.14E-01 µm2/s
0.8µM FtsA alone, replicate Exp.1
  Diffusion Coefficient: 2.82E-01
0.8µM FtsA alone, replicate Exp.2
  Diffusion Coefficient: 8.82E-02
0.8µM FtsA alone, replicate Exp.3
  Diffusion Coefficient: 6.72E-02
0.8µM FtsA alone, replicate Exp.4
  Diffusion Coefficient: 7.30E-02
0.8µM FtsA alone, replicate Exp.5
  Diffusion Coefficient: 1.01E-01
0.8µM FtsA alone, replicate Exp.6
  Diffusion Coefficient: 8.47E-02
0.8µM FtsA alone, replicate Exp.7
  Diffusion Coefficient: 1.13E-01
0.8µM FtsA alone, replicate Exp.8
  Diffusion Coefficient: 9.93E-02
0.8µM, + FtsN&Z, Mean, n=5 (WT), 4 (R286W)
  Diffusion Coefficient: 0.0070
0.8µM, + FtsN&Z, replicate Exp.1
  Diffusion Coefficient: 2.90E-03
0.8µM, + FtsN&Z, replicate Exp.2
  Diffusion Coefficient: 7.64E-03
0.8µM, + FtsN&Z, replicate Exp.3
  Diffusion Coefficient: 1.38E-02
0.8µM, + FtsN&Z, replicate Exp.4
  Diffusion Coefficient: 3.70E-03
0.8µM, + FtsN, Mean, n=4 (WT), 3 (R286W)
  Diffusion Coefficient: 0.0439
0.8µM, + FtsN, replicate Exp.1
  Diffusion Coefficient: 1.96E-02
0.8µM, + FtsN, replicate Exp.2
  Diffusion Coefficient: 4.05E-02
0.8µM, + FtsN, replicate Exp.3
  Diffusion Coefficient: 7.15E-02
0.8µM, + FtsZ, Mean, n=3 (WT), 8 (R286W)
  Diffusion Coefficient: 0.0159
0.8µM, + FtsZ, replicate Exp.1
  Diffusion Coefficient: 3.69E-02
0.8µM, + FtsZ, replicate Exp.2
  Diffusion Coefficient: 8.95E-03
0.8µM, + FtsZ, replicate Exp.3
  Diffusion Coefficient: 1.47E-02
0.8µM, + FtsZ, replicate Exp.4
  Diffusion Coefficient: 3.84E-03
0.8µM, + FtsZ, replicate Exp.5
  Diffusion Coefficient: 3.32E-03
0.8µM, + FtsZ, replicate Exp.6
  Diffusion Coefficient: 1.93E-02
0.8µM, + FtsZ, replicate Exp.7
  Diffusion Coefficient: 8.19E-14
0.8µM, + FtsZ, replicate Exp.8
  Diffusion Coefficient: 4.01E-02
0.10 µM FtsA
  Dcoeff: 5.20E-02 µm2/s
0.20 µM FtsA
  Dcoeff: 6.48E-02 µm2/s
0.40 µM FtsA
  Dcoeff: 1.35E-01 µm2/s
0.80 µM FtsA
  Dcoeff: 1.14E-01 µm2/s
